Tested on: microglia
Assay: Action of BMP on transdifferentiation of microglia into neurons; immunocytochemical marker quantification
Type: cell-based, rat
Details: day 5 after enrichment; 100 ng/ml noggin in medium containing 70% FCS, 2 days
Protocol: The cerebral cortex was isolated from newborn Wistar rats aged from 0 to 1 day (obtained from Shimizu Experimental Material Co. Ltd.) and cultured in an Eagle's minimum essential medium (EMEM) supplemented with 10% fetal calf serum (FCS) and […] insulin at 37° C. in an atmosphere of 5% CO2. After 14 to 16 days of incubation, microglia were isolated and prepared by the enriching procedure.
The cells were fixed with 4% paraformaldehyde and then reacted individually with an anti-CD11b antibody ([…], Chemicon International) or an anti-MAP2 antibody ([…], DakoCytomation) as a primary antibody and with Cy2-conjugated goat anti-mouse IgG (H+L) (Jackson ImmunoResearch) or Cy3-conjugated goat anti-rabbit IgG (H+L) (Jackson ImmunoResearch) as a secondary antibody. The CD11b is a marker for microglia and the MAP2 is a marker for neurons. […]
After immunostaining the cells, images (200× magnification) of 8 fields per case were randomly obtained using a fluorescent microscope and MataMorph software (Molecular Devices). The numbers of cells expressing individual markers were counted and the average rates to the total number of cells were used as data. […]
Quantification was carried out in the same manner as in Example 1.

B1: noggin: a BMP inhibitor (N6784), Sigma (protein, UniProt Q13253 28-232, looked up)
Noggin: QHYLHIRPAPSDNLPLVDLIEHPDPIFDPKEKDLNETLLRSLLGGHYDPGFMATSPPEDRPGGGGGAAGGAEDLAELDQLLRQRPSGAMPSEIKGLEFSEGLAQGKKQRLSKKLRRKLQMWLWSQTFCPVLYAWNDLGSRFWPRYVKVGSCFSKRSCSVPEGMVCKPSKSVHLTVLRWRCQRRGGQRCGWIPIQYPIISECKCSC
effect on transdifferentiation of microglia into neurons by 70% serum: this transdifferentiation was suppressed

From patent US7595168B2, “Method of screening for substances useful for transdifferentiation of microglia into neurons” (Eisai R&D Management Co., Ltd., priority 2006, dated 2009)
